Source: patent publication US20260022165A1 (US Dept. of Health and Human Services, published 2026)

How the values were obtained:
hFc-hC3d fusion protein = biological target: T1, hFc-hC3d fusion protein (human, UniProt P01024 1002-1303, limits assumed); assay: SPR (Biacore X100), Fab over captured hFc-hC3d
T1 construct: domain: C3d; also called immobilized hC3d; not shown: human IgG Fc (hFc), captured by an anti-human IgG CH2 / Fcγ mAb
Method: (§1) Kinetic and thermodynamic parameters characterizing the binding of purified Fabs to hC3d or mC3d was performed by surface plasmon resonance (SPR) in a Biacore X100 instrument (GE Healthcare). Using mouse anti-human IgG CH2 mAb immobilized on a CM5 sensor chip, hFc-hC3d or hFc-mC3d fusion proteins were captured at a density <400 RU. Each sensor chip included an empty flow cell for instantaneous background subtraction. All binding assays used 1×HBS-EP+ running buffer (10 mM HEPES, 150 mM NaCl, 3 mM EDTA (pH 7.4), and 0.05% (v/v) Surfactant P20) at a flow rate of 30 μL/min. […] Calculation of association (kₒₙ) and dissociation (koff) rate constants were based on a 1:1 Langmuir binding model. The equilibrium dissociation constant (KD) was obtained by the formula KD=koff/kₒₙ.

hFc-mC3d fusion protein = biological target: T2, hFc-mC3d fusion protein (human; mouse, UniProt P01027 1002-1303, limits assumed); assay: SPR (Biacore X100), Fab over captured hFc-mC3d
T2 construct: domain: C3d; not shown: human IgG Fc (hFc), captured by an anti-human IgG CH2 mAb
T2 sequence (P01027 1002-1303 limits assumed): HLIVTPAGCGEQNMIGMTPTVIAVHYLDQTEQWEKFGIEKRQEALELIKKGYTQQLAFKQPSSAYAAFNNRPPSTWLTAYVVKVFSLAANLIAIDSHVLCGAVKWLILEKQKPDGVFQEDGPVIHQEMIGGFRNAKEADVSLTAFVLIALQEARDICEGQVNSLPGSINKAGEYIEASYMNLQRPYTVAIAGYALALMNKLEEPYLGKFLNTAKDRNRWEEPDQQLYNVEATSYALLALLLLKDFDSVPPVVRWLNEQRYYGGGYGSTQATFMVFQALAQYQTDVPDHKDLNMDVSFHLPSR
Method: as §1

[1] = biological target: T3, human complement protein C3d (human, UniProt P01024 1002-1303); assay: flow cytometry; His-tagged Fab on zymosan particles opsonized with human serum (C3b/iC3b/C3d); detection AF488 mouse anti-His mAb
T3 construct: domain: C3d; the 30 min deposits on zymosan are a mixture of C3b/iC3b/C3d that the text calls C3d; also called hC3d; human C3d
Method: (§2) C3-opsonized zymosan particles (1e6) were incubated with 100 μL of 1 ug/mL His-tagged Fabs in a 96-well V-bottom plate at 37° C. for 1 h. After three washes with PBST (0.05% v/v Tween 20 in PBS), 100 μL of mouse anti-His tag mAb conjugated to horse radish peroxidase (HRP) (R&D Systems, Minneapolis, MN) at 1:1000 dilution in 1% (w/v) BSA/DPBS was added to detect bound Fabs using 2,2′-azino-bis (3-ethylbenzthiazoline)-6-sulfonic acid (Roche/Milipore Sigma, St. Louis, MO) as substrate. The absorbance was measured at 405 nm using a SpectraMax M5 microplate reader and SoftMax Pro software (Molecular Devices, LLC, San Jose, CA). To test for the potential of C3 in NHS to block binding of the mAbs to C3-fragment opsonized zymosan, serial dilutions of NHS were premixed with the opsonized zymosan particles prior to addition of his-tagged Fabs and following the procedure described above.
The binding of rabbit antibodies (Fabs) was detected by flow cytometry following the same procedure described above except using a mouse anti-His tag mAb conjugated to AF488 (Qiagen, Valencia, CA).

[2] = biological target: T4, full length human C3 present in plasma (human, UniProt P01024 23-1663); assay: ELISA, competition; His-tagged Fab (1 ug/mL) on zymosan opsonized with human C3 fragments in the presence of normal human serum (printed PNHCS) at 1/10, 1/50, 1/250 as source of full-length C3; normalized to media without serum
T4 construct: mature; Not purified: it stood in the assay as dilutions of normal human serum; also called full-length, soluble C3; C3 in NHS
Method: Zymosan particles opsonized with human C3 fragments were suspended in media with indicated dilutions of NHS (1/10, 1/50 and 1/250) prior to addition of His-tagged anti-C3d Fab antibodies at 1 μg/mL. Mouse anti-His mAb conjugated with HRP was used to determine the binding signal of each Fab by ELISA. Data is normalized to media control containing no NHS.
as §2

Binder	Kd (hFc-hC3d fusion protein) [nM]	koff (hFc-hC3d fusion protein) [s⁻¹]	kon (hFc-hC3d fusion protein) [M⁻¹ s⁻¹]	Kd (hFc-mC3d fusion protein) [nM]	koff (hFc-mC3d fusion protein) [s⁻¹]	kon (hFc-mC3d fusion protein) [M⁻¹ s⁻¹]	binding result [1]	binding result [2]
Ab3 Fab (His-tagged rabbit/human chimeric anti-C3d Fab) (Fab, V domains shown, Fab with rabbit Vκ/human Cκ/rabbit VH, His-tagged; also called Ab3 (κ)) VH: QKQLVESGGRLVTPGGSLTLTCTISGIDLNTYGMTWVRQAPGKGLEYIGIIVSSGNTYYANWAQGRFTISKTSTTVDLKMTSLTASDTATYFCARGLGRAYSSGYGMDGWGPGTLVTVSS VL: DPVLTQTPSSTSAAVGGTVTIKCQASQNIYTSLAWYQQKPGQPPKLLIYGASNLASGVPSRFKGSRSGTEYTLTISGVEREDAATYYCLGSYTQIDTTFGGGTKLEIK	13.3	0.00126	94600	97.6	0.0227	232000		
Ab5 Fab (His-tagged rabbit/human chimeric anti-C3d Fab) (Fab, V domains shown, Fab with rabbit Vκ/human Cκ/rabbit VH, His-tagged; also called Ab5 (κ)) VH: QSLEESGGRLVTPGTPLTLTCTVSGFSLSTYTLGWVRQAPGKGLEYIGWIDSSGSAYYASWAKGRFTISKASSTTVDLKMAGLTTEDTATYFCASGNTGGDPLYYGMDPWGPGTLVTVSS VL: DPVLTQTPSSTSAAVGGTVTIKCQASQNIGRWLAWYQQKPGQPPKLLIYRASDLASGVPSRFKGSGSGTQFTLTISGVQREDAATYYCLGSYSSSDSAFGGGTEVVVK	0.99	0.00014	141000	22.9	0.00568	248000		
Ab4 Fab (His-tagged rabbit/human chimeric anti-C3d Fab) (Fab, V domains shown, Fab with rabbit Vκ/human Cκ/rabbit VH, His-tagged; also called Ab4 (κ)) VH: QSLEESGGRLVTPGTPLTLTCTVSGFSLSRYTMAWVRQAPGKGLEYIGWIDSSGSTYYASWAKGRFTISKTSSTTVDLKMTSLTTEDTATYFCASGNDGGDPLYYGMDPWGPGTLVTVSS VL: DGVMTQTPSSTSAAVGGTVTIKCQASQSIRSWLSWYQQKPGQPPKLLIYEASKLASGVPSRFKGSRSGTEYTLAISGVQREDAATYYCLGSIASDDTAFGAGTNVEIK	3.1	0.00028	90900	132	0.00801	60600		
Ab2 Fab (His-tagged rabbit/human chimeric anti-C3d Fab) (Fab, V domains shown, Fab with rabbit Vκ/human Cκ/rabbit VH, His-tagged; also called Ab2 (κ)) VH: QSVEESGGRLVTPGTPLTLTCTVSGFSLSSYAMTWVRQAPGKGLEWIGVIGTSGMRYYANWAKGRFTISKTSTTVDLKITSPTTEDTATYFCARANFYVGNDESTDAFDPWGPGTLVTVSS VL: ALVMTQTPPSLSASVGETVRIRCLASEDIYNTISWYQQKPGKPPTLLIYGASNLKSGVPPRFSGSGSGTDYTLTIGGVQSEDAATYYCLGGYSYSSTGLTFGAGTKVEIK	3.35	0.00054	162000	9.04	0.00174	193000		
Ab1 Fab (His-tagged rabbit/human chimeric anti-C3d Fab) (Fab, V domains shown, Fab from the phage display vector pC3C with rabbit Vλ/human Cλ/rabbit VH, His-tagged; also called Ab1 (λ)) VH: QSVEESRGRLVTPGTPLTLTCTVSGIDLSSSAITWVRQAPGKGLEWIGMISTDGATYYANWAKGRFTFSKTSTTADLKITSPTTEDTATYFCARGLTNFSIWGPGTLVTVSS VL: QPVLTQSPSASAALGASAKLTCTLSSAHKTYTIAWYQQQPGESPRYLMLLKSDGSYTRGPGVPDRFSGSSSGADRYLIIPSVQADDEAGYYCGADYNGGYVFGGGTQLTVTG							binds	no binding (tested: serum dilution 1/10)
